From article PMC9898751

Experiments:
[1] = biological target: PHF2(1–451), N-terminal half of human PHF2 with the PHD and Jumonji domains (residues 1–451) (human) (UniProt O75151); test: ITC
[2] = biological target: PHF2(1–70), PHD domain of human PHF2 (residues 1–70) (human) (UniProt O75151); test: ITC
Sequence of PHF2(1–70), PHD domain of human PHF2 (residues 1–70) (human) (O75151 1-70): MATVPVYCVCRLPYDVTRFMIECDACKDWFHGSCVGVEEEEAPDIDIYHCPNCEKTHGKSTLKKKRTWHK

Sequence of PHF2(1–451), N-terminal half of human PHF2 with the PHD and Jumonji domains (residues 1–451) (human) (O75151 1-451): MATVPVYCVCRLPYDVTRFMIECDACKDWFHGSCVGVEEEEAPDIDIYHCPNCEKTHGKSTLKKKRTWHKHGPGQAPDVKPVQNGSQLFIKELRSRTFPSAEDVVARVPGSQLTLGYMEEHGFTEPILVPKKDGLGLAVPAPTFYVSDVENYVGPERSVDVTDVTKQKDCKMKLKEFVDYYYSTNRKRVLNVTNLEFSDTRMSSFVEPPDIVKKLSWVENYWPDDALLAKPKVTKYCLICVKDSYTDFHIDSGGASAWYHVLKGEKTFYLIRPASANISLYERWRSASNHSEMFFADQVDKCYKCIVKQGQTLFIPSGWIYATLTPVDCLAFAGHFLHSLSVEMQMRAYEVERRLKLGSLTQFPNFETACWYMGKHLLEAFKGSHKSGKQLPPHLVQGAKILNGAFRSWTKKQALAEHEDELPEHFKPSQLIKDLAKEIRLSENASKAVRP

Substance: VRK1(1-12)K4me3 peptide (12-mer of the N-terminus of vaccinia-related kinase 1, trimethylated at lysine 4)
- Kd [1]: 42 nM
- Kd [2]: 900 nM
